Measured values from the supplement of paper PMC12042874.
± gives the uncertainty stated by the source.

Test: amyloid nucleation score (Sup35N fusion, yeast selection) (log enrichment); library NNK1; higher = more nucleation; inactive = no reads after selection
Summary of the method: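 The nucleation score is a DiMSum log enrichment of output over input reads, centred on the mode score of non-aggregating sequences. Sequences under 100 input reads were excluded, and reads came from Illumina sequencing of plasmid inserts. Psi-negative yeast expressing Sup35N fused to peptides of 20 random codons were induced with 100 μM copper sulfate for 24 hours and grown 7 days at 30°C on medium lacking adenine and uracil. Random libraries had three technical output replicates.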

| Substance | amyloid nucleation score |
| --- | --- |
| CRGNDKVLPKIGATNCWLST | inactive |
| CRIIPLYRKFLKHLTCHYIQ | -0.092 ± 0.25 |
| CRISTGNGVI | inactive |
| CRLGNEKGRLKSWQNRSNIC | -0.22 ± 0.59 |
| CRLSNGV | -0.392 ± 0.31 |
| CRMGMLYEISQC | 0.743 ± 0.76 |
| CRSSVFKYVPVSNIFDYFSI | 0.921 ± 0.84 |
| CRSVVGVGSCRTGPEEGVYP | -0.106 ± 1.7 |
| CRTHDKCKDSGHSRLNGYSG | -0.299 ± 0.51 |
| CSCACCVELHQL | 6.611 ± 0.062 |
| CSDFITLSMFV | 0.99 ± 0.66 |
| CSFLELLWDVGRCSASQQCM | -0.943 ± 1.7 |
| CSLSSRNDLGCIMVLLYAWI | 0.605 ± 0.33 |
| CSLTCVSWHMGSF | 2.15 ± 0.32 |
| CSRANRKGECG | -0.62 ± 1.3 |
| CSRTRRSHSIECACCKYIFA | -0.343 ± 0.47 |
| CSRVVWLVIRLLEMWIEPRA | 0.815 ± 0.73 |
| CSSMQFVACLNSAYGSSTAM | 0.027 ± 0.76 |
| CSTRGFGGD | -0.921 ± 1.1 |
| CSYGARGIWATESIVANKSV | inactive |
| CSYPYGQSEDCGSRSGRGYA | 0.877 ± 1 |
| CTADWLRDPRVGVRGPEGGG | 0.273 ± 0.3 |
| CTAWNVS | -0.657 ± 1.7 |
| CTAYYMLGGGRNLNHPLMWV | 0.497 ± 0.61 |
| CTDVNSQ | 0.033 ± 0.9 |

| Substance | amyloid nucleation score |
| --- | --- |
| CTFTY | 0.053 ± 1.1 |
| CTGIWSLLSCTTFRHIATVV | -0.469 ± 1.7 |
| CTGPMD | 0.055 ± 0.57 |
| CTGSCVRRVCGGFIEADIRY | -0.28 ± 0.41 |
| CTLSYCWWMAQYPDISRLIT | -0.362 ± 0.74 |
| CTSDHSSFAKFLLLTCCLLL | 0.841 ± 0.92 |
| CTTLGLQPFRDWRFAGKLAR | 0.049 ± 1.1 |
| CTYVLWRGMKGFR | 0.05 ± 0.88 |
| CVCMVRYGVRAHR | 0.469 ± 0.64 |
| CVDRRV | 0.203 ± 0.56 |
| CVFMRATLQK | 3.25 ± 0.15 |
| CVKASLMMWVQFYIDSY | inactive |
| CVLCDGYFKSERLLNGWVM | -0.641 ± 0.52 |
| CVMNLYGGMPHAGRWTGF | 4.33 ± 0.11 |
| CVSHNVILRK | 2.4 ± 0.092 |
| CVTLCSNPWDQKRFICIYRH | -0.021 ± 0.55 |
| CVVESMSIIMRRCSLS | -0.861 ± 0.42 |
| CVVFAVKGCAGGWTRFMLDN | -0.268 ± 0.4 |
| CWASIEVLRRSDYGGFCHSV | 0.826 ± 0.6 |
| CWNVLNCMHAFRCGPMNQRR | 0.831 ± 0.58 |
| CWPRG | 0.326 ± 0.55 |
| CWTCTSRVEWSPV | -0.374 ± 0.74 |
| CWTLSDVLFDNNLFTMNMGP | -0.291 ± 0.67 |
| CYAFLDWAYVSEG | 0.114 ± 0.28 |
| CYCLNAGVSMADHSVPPRVF | 0.912 ± 0.71 |

| Substance | amyloid nucleation score |
| --- | --- |
| CYCSEWNWRCNTELDVLFQS | 0.818 ± 0.4 |
| CYGGWVYLLRIALCGEDSVI | 0.58 ± 0.58 |
| CYHQFGV | inactive |
| CYKLGYGFVHFSAIMVNIIS | -1.22 ± 1.7 |
| CYLKGYA | 0.853 ± 0.52 |
| CYMKNKLSFIM | inactive |
| CYRIDGSYYQLSCSYVYVRV | -0.837 ± 1.1 |
| CYVLRSRSCLVFLMVYRGRV | 4.95 ± 0.073 |
| DASGNYWGWKLWGDQGERGY | inactive |
| DASLQWYVDSLKFCWV | 0.18 ± 0.36 |
| DASLVGLQLSHHSILFHCSM | 0.021 ± 1.2 |
| DCCGFNFYWISPRFHLRECL | 0.831 ± 0.27 |
| DCMIVGLHHIKVRHSLFVRW | -0.128 ± 0.33 |
| DCRFNRGGFNNVR | 0.514 ± 0.31 |
| DCYNLKQWRSCCDLAVASGG | 0.24 ± 0.88 |
| DDCESFEMRAFM | 1 ± 0.55 |
| DETQKPRVLCMLLLSKSTEN | 0.558 ± 0.34 |
| DFGFLF | 0.851 ± 0.37 |
| DFLDNVFVTSECHVN | 0.255 ± 0.6 |
| DFLMMSVLHHNNVSYS | 1.52 ± 0.66 |
| DFVMGYYVELWFMYASL | 0.4 ± 0.21 |
| DFWSYDDVVFGRC | 1.3 ± 0.6 |
| DGHGRYA | inactive |
| DGIRSWENSMVIYGI | -0.091 ± 0.4 |
| DGKHWTDYLVMY | 1.5 ± 0.47 |

| Substance | amyloid nucleation score |
| --- | --- |
| DGLKFGFEINPAVRQ | 1.11 ± 0.48 |
| DGTVGSYCMIFWELYRDNFF | -0.761 ± 1.2 |
| DHASGLVLLCLVWLGLMSLK | 0.501 ± 0.43 |
| DHGHCISPNTSYFMVDWFLK | 0.473 ± 0.39 |
| DIPYVFLLFLQECDNVFLCH | 2.54 ± 0.17 |
| DIVRWLCPHRTK | 1.23 ± 0.93 |
| DIWDTAAAPGCRCRGNS | -0.363 ± 1.5 |
| DLCFCTR | -1.37 ± 2.7 |
| DLCTNYQWFRAAYCYMSRVY | 1.2 ± 0.98 |
| DLDCFRFVLSLGDFMGRCVS | 0.266 ± 0.42 |
| DLFDFFRRRYHFRCFVSSIW | -1.52 ± 2.4 |
| DLFFIG | 0.188 ± 0.38 |
| DLILPRRLSYGYLPVLEGPS | -0.222 ± 0.76 |
| DLIRPLSCTRVLSPNFLCS | -0.54 ± 0.66 |
| DLLETKWIPSLVYKSFESLW | -0.137 ± 0.63 |
| DLLTWDCLEHDVDMLLVGPN | 0.152 ± 0.36 |
| DLRFCNASYVLWISDFAHAV | -0.08 ± 0.41 |
| DLRFSTRLGHCISVFMRKIW | inactive |
| DLSDLFLYHFVIWTSVNYSY | -0.562 ± 1.1 |
| DLSKFGKHFCLLMHYGFPNH | -0.3 ± 0.28 |
| DLSRDAIRSKSEGAVR | -1.24 ± 1.7 |
| DLWWGRVRYG | 2.64 ± 0.097 |
| DMEQAICEPSLFKIVGDNNL | -0.186 ± 0.86 |
| DMLFPAMRYAVHDVSVSAGN | 0.582 ± 0.64 |
| DMLWKRWTIYYAFYFKAWGY | 1.08 ± 0.39 |

| Substance | amyloid nucleation score |
| --- | --- |
| DMQIWFLYDCI | inactive |
| DMVEMVHCSCF | 1.49 ± 0.21 |
| DNFMSAGRLWSDSSADLIIT | 0.277 ± 0.79 |
| DNQVLCYECRGYWMQTVHVL | 0.069 ± 0.97 |
| DNRDYVALSFPRKLKWCYIS | -0.834 ± 0.25 |
| DNSLYE | -2.11 ± 2.7 |
| DPADAPMITRNVGTWAKQVP | 0.324 ± 0.97 |
| DPAHLSGWLLCSP | 0.624 ± 0.45 |
| DPCSVGFVPPMVLGSLGGDV | -0.248 ± 0.71 |
| DPHYL | inactive |
| DPICFYYYFLVN | -2.01 ± 1.5 |
| DPLRMILVISFRMVRFIQWP | 0.072 ± 0.32 |
| DPQTGDGVLAMNKWEPYRGL | 0.697 ± 0.48 |
| DQRRGFSMETSYTD | 1.42 ± 0.71 |
| DRAGERMGIR | 0.13 ± 0.28 |
| DRFNCKCFVLSKVLCWYGVG | 0.851 ± 0.79 |
| DRKVGNHLFTRVCDEATMLM | 1.75 ± 0.41 |
| DRRCLRYSLNCLLFRSIYYN | 0.652 ± 1 |
| DRRRNCYFIRLWQGLGYIS | inactive |
| DRSDDGHNESLWAVLMRHKV | 0.315 ± 0.52 |
| DSCEW | -0.062 ± 0.58 |
| DSGLFSKVVMHDNPSSVDKL | -0.123 ± 0.64 |
| DSGWRWCNRSTSVGNVNVMR | 0.171 ± 0.43 |
| DSKLLSPDFRGRLIYRIFDD | -0.101 ± 0.46 |
| DSLLEIGRSGVNELVGGLAD | -0.422 ± 1.2 |

| Substance | amyloid nucleation score |
| --- | --- |
| DSNFVTGWMTSIMLRVGVLR | 0.514 ± 1.2 |
| DSPNVVQLLKYTLRYEARLG | 0.877 ± 0.16 |
| DSRCGPM | inactive |
| DSTSDMLHLIIRTMISLISR | -0.257 ± 0.35 |
| DTGLRLD | 0.536 ± 0.54 |
| DTLIAWTGLVMFTSVERGCS | -0.299 ± 0.37 |
| DTNQGYGVSGQIVKGRICFN | -0.681 ± 0.47 |
| DTNTSIMHTIPRVGLNGCRR | 10.02 ± 0.051 |
| DTPNISAFYLWNLRKRLMIF | -0.023 ± 0.31 |
| DTQESSNIVRSLPRLVGLLG | 0.248 ± 0.43 |
| DTYKSPKHYRRL | 0.608 ± 0.64 |
| DVDTRRT | inactive |
| DVFADGKVIQAYLM | -0.117 ± 0.39 |
| DVFGLLSIYYR | 1.1 ± 0.57 |
| DVQQPPMDSISH | 1.17 ± 0.57 |
| DWFLTLAKVYSLNGQVFRMR | inactive |
| DWGRLVYRFNCKDRNRDGAR | 0.177 ± 0.41 |
| DWMLISE | -0.084 ± 0.28 |
| DWSIDILYSVIRSPVNLINS | -1.01 ± 0.52 |
| DWSRQFYMFVNVKARLFRGT | -0.05 ± 0.69 |
| DYAFKFCFQLVDKAYRSLSY | -0.413 ± 0.27 |
| DYDTMSNFSDSALCTPIRCD | 0.485 ± 0.35 |
| DYFSRKPGNCFWFAIARDNT | -0.398 ± 1.2 |
| DYNIVYYNLYNTYINNYQSF | 7.72 ± 0.048 |
| DYRGTPNSWMIFMTPRGSLI | -0.004 ± 1.1 |

| Substance | amyloid nucleation score |
| --- | --- |
| DYRGYFKSDIYSNFLTFLPG | -0.663 ± 0.22 |
| DYYLATCYLPYALNCLAFLN | -1.18 ± 0.97 |
| EAARMWSFNGNLSVFWIT | 5.72 ± 0.097 |
| EANMIYFLNGANLHRFFKHF | 1.59 ± 0.35 |
| EAPGTKFCC | 2.94 ± 0.1 |
| EAPYISFVLIG | inactive |
| ECCQDVIFFVAQINTCIEVT | 0.221 ± 0.37 |
| ECRVCL | -0.807 ± 2.4 |
| ECVNLLR | 0.471 ± 0.25 |
| EDGPWACTCYYCGQGRRTWV | 0.16 ± 0.9 |
| EDGSQ | 0.532 ± 0.42 |
| EDSLPLDMEVNLGRIVEPKM | 1.14 ± 0.59 |
| EEQVDLIWLMYGAYHVCVMW | 0.416 ± 0.43 |
| EERDFKEPSRLVIIKLTVMF | 3.18 ± 0.12 |
| EERVFVYRLWYQSLVRHYEL | -0.204 ± 0.41 |
| EESSPEAWSVRERTAGVFVF | -0.09 ± 0.86 |
| EFGASRNAYTMRRILENGSA | -0.123 ± 0.38 |
| EFLMIQIVMGAPGCHKGTRR | 0.322 ± 0.47 |
| EFLRNGLIILIVSLSAGELS | 0.137 ± 0.23 |
| EFQMLEFYRANLPSKSQNTL | -0.777 ± 0.43 |
| EFSSKMSRMM | 0.268 ± 1.2 |
| EGGRFKHRMNSCHYNSFGLH | -0.255 ± 0.76 |
